Assay results taken from the supplement of paper PMC9732359.
± gives the uncertainty stated by the source.

Assay: protein stability index of a GFP-peptide fusion (yeast GPS) (PSI 1-4); higher = more stable; sorted into four equal gates, so the index is relative within each strain
Summary of the method: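 The protein stability index combines read frequencies across sorting gates, each weighted by its gate number and then summed. To obtain those frequencies, a pooled yeast library of GFP fusions to tiled 17-residue yeast protein peptides, on a plasmid also expressing Cherry, was grown to mid-log phase in leucine-free medium. The cells were sorted into four equal gates by GFP/Cherry ratio before plasmid amplification by PCR and Illumina sequencing.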

Sequence | protein stability index (doa10∆) | protein stability index (pdr5∆) | protein stability index (san1∆) | protein stability index (ubr1∆)
NDSENNSSEEDKKKGQN [ITC1] | 2.24 ± 0.073 | 2.53 ± 0.11 | 2.68 ± 0.12 | 2.86 ± 0.1
TVISGDPNLELDQVGVP [RPO21] | 3.48 ± 0.23 | 3.2 ± 0.13 | 2.48 ± 0.23 | 3.04 ± 0.16
LLAHKVADEEANIELTW [RPC37] | 1.49 ± 0.074 | – | 1.59 ± 0.14 | 1.74 ± 0.1
RIFISNVSENQPWQMDT [SNF12] | 2.98 ± 0.052 | 3.17 ± 0.072 | 3.09 ± 0.04 | 3.11 ± 0.054
EIKKWTAVAFWSWDIAV [HRT1] | 1.23 ± 0.076 | 1.7 ± 0.073 | 1.65 ± 0.11 | 1.36 ± 0.044
TFSQESGLMVILYTSKI [RRI2] | 2.78 ± 0.076 | 3.05 ± 0.084 | 2.6 ± 0.085 | 2.94 ± 0.053
RARVKAFPKDDRSKPVA [RPL3] | 2.85 ± 0.1 | 3.12 ± 0.1 | 3.4 ± 0.047 | 3.15 ± 0.083
KKLELPKYIDELKTRDA [SWP82] | 3.03 ± 0.097 | 3.39 ± 0.092 | 2.78 ± 0.077 | 3.48 ± 0.071
NTIGSVHGKAPMLMANN [SSN3] | 1.54 ± 0.18 | 1.54 ± 0.11 | 1.48 ± 0.19 | 1.89 ± 0.19
SPEQIDASPDSLEALID [YCS4] | 2.92 ± 0.054 | 2.88 ± 0.049 | 2.94 ± 0.044 | 3.05 ± 0.041
DPYELKGEVVLVNIRTQ [ITC1] | 1.57 ± 0.098 | 2.66 ± 0.14 | 2.45 ± 0.11 | 2.3 ± 0.099
FCRDCNNMLYPREDKEN [RPB9] | 3.11 ± 0.083 | 3.11 ± 0.076 | 2.9 ± 0.064 | 3.08 ± 0.061
LQDLEEAKSFQDEAELV [RPC82] | 3.5 ± 0.12 | 3.3 ± 0.15 | 3.52 ± 0.14 | 3.72 ± 0.17
GRPRGRPKKVKLEGSEN [SNF2] | 3.41 ± 0.19 | 3.21 ± 0.21 | 3.27 ± 0.098 | 3.65 ± 0.17
PKDSSSTFREWKNLVLK [YJR042W/NUP85] | 3.29 ± 0.11 | 2.76 ± 0.12 | 3 ± 0.065 | 3.16 ± 0.088
VRDKLDEYQAAVEQRKK [DPB4] | 3.42 ± 0.097 | 3.37 ± 0.066 | 3.31 ± 0.055 | 3.33 ± 0.073
DVNEKIRFRIEREVFVD [RPC25] | 1.81 ± 0.074 | 1.29 ± 0.066 | 1.56 ± 0.13 | 1.2 ± 0.044
REHFEKTVAVDSVFEQN [RPL3] | 2.94 ± 0.12 | 2.93 ± 0.18 | 2.12 ± 0.12 | 2.37 ± 0.12
DYISGISVGLYDTTPLL [SKI6] | 2.42 ± 0.12 | 2.28 ± 0.1 | 1.84 ± 0.084 | 2.26 ± 0.13
KVENLDYMYENGKLTSA [YML031W/NDC1] | 3.59 ± 0.25 | 3.3 ± 0.12 | 3.04 ± 0.12 | –
VTEDGSIVTVVSSAKFS [RPL22B] | 2.79 ± 0.1 | 3 ± 0.12 | 2.99 ± 0.1 | 2.87 ± 0.087
IIQGRKNFDMLNSMEKD [PCI8] | 2.63 ± 0.083 | 2.77 ± 0.074 | 2.95 ± 0.046 | 2.71 ± 0.047
NTNNNDTIATSATPNAA [GAL11] | 2.7 ± 0.046 | 2.88 ± 0.046 | 2.59 ± 0.044 | 2.74 ± 0.043
DPPFRIEEQGWGGFPLD [TAF14] | 3.32 ± 0.055 | 3.33 ± 0.052 | 3.44 ± 0.048 | 3.34 ± 0.047
DAHKAEQEDIIEKTESV [SWI3] | 3.19 ± 0.086 | 3.32 ± 0.1 | 3.38 ± 0.046 | 3.21 ± 0.081
AIIDKNTGLTFKKNLQV [PRE4] | 3.22 ± 0.081 | 2.79 ± 0.076 | 2.79 ± 0.11 | 3.35 ± 0.082
VSEKAFLLTQSKVSIEQ [RPN7] | 3.21 ± 0.18 | – | – | 2.8 ± 0.14

Sequence | protein stability index (doa10∆) | protein stability index (pdr5∆) | protein stability index (san1∆) | protein stability index (ubr1∆)
FPEVFQVNIRFLLHNSE [SRB8] | 1.64 ± 0.1 | 1.73 ± 0.13 | – | 2.62 ± 0.17
DELVLNFENDNENNSNG [REC8] | 2.88 ± 0.19 | 2.62 ± 0.28 | 2.64 ± 0.15 | 2.79 ± 0.16
QGATNEGYQNDINTIKL [SRP72] | 3.54 ± 0.27 | 3.15 ± 0.17 | 2.46 ± 0.23 | –
ASKYNCDKSVCRKCYAR [RPL40A] | 2.81 ± 0.056 | 2.9 ± 0.058 | 2.87 ± 0.046 | 2.73 ± 0.053
RKHTRGDVSSGLFEKST [BRN1] | 2.81 ± 0.16 | 3.27 ± 0.1 | 2.5 ± 0.14 | –
LSETNGLHKFVKGDLLQ [PRE10] | – | 3.28 ± 0.23 | – | 3.48 ± 0.11
STFQTRRRRLKKVEEEE [RPB4] | 3.33 ± 0.15 | 3.52 ± 0.12 | – | 3.36 ± 0.14
HGNLASCHGHFGHLKLA [RPO31] | 1.48 ± 0.06 | 1.45 ± 0.061 | 1.14 ± 0.1 | 1.2 ± 0.033
GYDPALLNILSGLPTCD [RPN2] | 2.79 ± 0.083 | 2.91 ± 0.11 | 2.39 ± 0.078 | 2.55 ± 0.1
LEPDYQAPFSTSTKDKN [MED1] | 2.84 ± 0.075 | 3 ± 0.08 | 2.81 ± 0.084 | 3.08 ± 0.074
HCEDKDYKTAFSYFFES [RPN6] | 2.77 ± 0.081 | 2.83 ± 0.071 | 2.53 ± 0.076 | 3.02 ± 0.055
AHFWKPVLNLDKLWTLI [RPL28] | 2.22 ± 0.045 | 2.3 ± 0.047 | 2.09 ± 0.071 | 1.65 ± 0.032
VKLKQQKVNAVDSTFQK [SMC3] | – | 2.9 ± 0.19 | 3.36 ± 0.15 | 3.29 ± 0.062
SILKRHSFAVLLHERKL [NUT1] | 2.19 ± 0.12 | 2.13 ± 0.078 | 2.26 ± 0.18 | 2.45 ± 0.1
RVEPETFEIPQAHEIVI [SWI3] | 2.53 ± 0.073 | 2.84 ± 0.08 | 2.54 ± 0.079 | 2.94 ± 0.05
DTKLKAHELQSEDVSRD [YIL149C/MLP2] | 2.77 ± 0.058 | 2.95 ± 0.055 | 3.03 ± 0.048 | 2.86 ± 0.047
HEFFIANHDDQDDIDEM [SRP68] | 3.12 ± 0.056 | 2.64 ± 0.061 | 3.24 ± 0.04 | 3.23 ± 0.062
AHDYNNDQDMFTIVSLV [YML103C/NUP188] | 2.76 ± 0.21 | 3.11 ± 0.16 | 3.23 ± 0.12 | 2.95 ± 0.13
LAKLVSTIDANFADKYD [RPL8A] | 2.41 ± 0.14 | 2.8 ± 0.14 | 2.8 ± 0.12 | 1.89 ± 0.069
GLQGSGKTTSCTKLAVY [SRP54] | 2.47 ± 0.12 | 2.91 ± 0.077 | 1.97 ± 0.27 | 2.66 ± 0.089
VEFCGYSIPHPSENLLN [RPC19] | 2.7 ± 0.077 | 3.05 ± 0.062 | 2.92 ± 0.05 | 2.95 ± 0.074
ITNDWEQPCVDIISGKI [YJR042W/NUP85] | 3.36 ± 0.078 | 3.44 ± 0.066 | 3.18 ± 0.053 | 3.02 ± 0.058
EAFGNIKIDAKPALFER [MCD1] | 2.11 ± 0.083 | 2.89 ± 0.15 | 1.84 ± 0.21 | 2.58 ± 0.078
IQGFYWAVKEGPLAEEP [SNU114] | 1.58 ± 0.089 | 1.35 ± 0.086 | 1.27 ± 0.21 | 1.22 ± 0.04
TGESWVKLTYNSPSSAL [YDL088C/ASM4] | 2.31 ± 0.058 | 1.75 ± 0.055 | 2.08 ± 0.067 | 2.02 ± 0.04
GMCQLYFWHKIWRKVPG [SNU114] | 1.97 ± 0.064 | 1.8 ± 0.057 | 2.12 ± 0.091 | 2.14 ± 0.048
